Article PMC4191399
Residue numbers refer to the chain shown, from its start. pKd: −log10 of the molar value.

How the values were obtained:
Experiment in all cases: fluorescence polarization
Details in all cases: internal 6-carboxyfluorescein in backbone between U12 and C13 (central tetraloop bases); 25 mM MOPS pH 7.4, 150 mM KCl, 2 mM DTT, 2 mM MgCl2, 0.01% Triton X-100, 1 nM RNA, room temperature, 1 h
RIG-I WT (Homo sapiens) = target: T1, RIG-I WT (Homo sapiens) (UniProt O95786)
T1 sequence: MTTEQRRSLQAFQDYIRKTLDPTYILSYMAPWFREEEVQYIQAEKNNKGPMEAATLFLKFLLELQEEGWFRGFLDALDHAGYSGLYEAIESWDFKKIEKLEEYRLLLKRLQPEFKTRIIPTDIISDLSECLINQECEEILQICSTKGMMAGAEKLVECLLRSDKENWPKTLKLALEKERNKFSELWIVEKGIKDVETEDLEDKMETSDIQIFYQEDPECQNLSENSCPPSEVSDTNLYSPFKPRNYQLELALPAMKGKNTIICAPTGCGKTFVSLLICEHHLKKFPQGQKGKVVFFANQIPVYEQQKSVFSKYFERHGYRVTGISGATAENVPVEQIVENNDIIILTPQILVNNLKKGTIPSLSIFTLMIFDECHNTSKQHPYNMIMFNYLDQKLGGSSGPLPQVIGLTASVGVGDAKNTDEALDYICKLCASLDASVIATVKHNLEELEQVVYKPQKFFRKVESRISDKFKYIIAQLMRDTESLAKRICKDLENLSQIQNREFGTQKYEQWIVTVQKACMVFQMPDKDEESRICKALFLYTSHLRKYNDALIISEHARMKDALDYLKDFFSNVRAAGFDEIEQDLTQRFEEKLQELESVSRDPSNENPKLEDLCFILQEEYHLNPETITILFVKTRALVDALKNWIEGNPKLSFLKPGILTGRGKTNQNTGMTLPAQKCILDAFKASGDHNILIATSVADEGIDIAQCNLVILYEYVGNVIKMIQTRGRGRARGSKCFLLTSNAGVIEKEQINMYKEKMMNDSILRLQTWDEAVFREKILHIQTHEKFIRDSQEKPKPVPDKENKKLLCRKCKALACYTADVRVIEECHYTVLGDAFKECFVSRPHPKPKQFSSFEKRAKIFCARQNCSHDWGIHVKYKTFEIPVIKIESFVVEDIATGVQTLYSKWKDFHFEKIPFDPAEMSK

[1] = target: T2, RIG-I Q784A Q784A (Homo sapiens) (UniProt O95786)
T2 sequence: T1 sequence with Q784A

[2] = target: T3, RIG-I Q784A/R791A Q784A;R791A (Homo sapiens) (UniProt O95786)
T3 sequence: T1 sequence with Q784A, R791A

Sequence GGACGUACGUUUCGACGUACGUCC [5'OH10L-F] has a pKd (RIG-I WT (Homo sapiens)) of 7.60, a pKd [1] of 7.62 and a pKd [2] of 7.04.
